Experimental data as given in paper PMC5500802.
Each block holds one molecule with its values, some of them ahead of it.

Assays:
[1] = molecular target: GST-ACK GBD wild type, ACK(448-489) (UniProt Q07912); assay: BLI; Octet Red; GST fusion proteins (10 μg/ml) loaded on anti-GST sensors, dipped into a dilution range of Cdc42·GMPPNP; 50 mM Tris–HCl pH 7.5, 150 mM NaCl, 1 mM MgCl2, 0.02% Tween 20, 0.1% BSA, 0.05% sodium azide, 25 °C; GST-alone sensors subtracted
[2] = molecular target: GST-WASP (Wiskott–Aldrich syndrome protein) fusion construct; assay: as above
[3] = molecular target: GST-WASP ΔBR (basic region mutant of WASP); assay: as above
GST-ACK GBD A451D = GST-ACK GBD A451D (UniProt Q07912); assay: scintillation proximity assay (direct binding); 20 nM GST-ACK variant immobilised on protein A SPA fluoromicrospheres via an anti-GST antibody; varying concentrations of [3H]GTP-Cdc42; background without effector subtracted; apparent Kd from a direct binding isotherm
GST-ACK GBD D469A = GST-ACK GBD D469A (UniProt Q07912); assay: as above
GST-ACK GBD D480A = GST-ACK GBD D480A (UniProt Q07912); assay: as above
GST-ACK GBD F462A = GST-ACK GBD F462A (UniProt Q07912); assay: as above
GST-ACK GBD G468A = GST-ACK GBD G468A (UniProt Q07912); assay: as above
GST-ACK GBD H464A = GST-ACK GBD H464A (UniProt Q07912); assay: as above
GST-ACK GBD H464A/H467A = GST-ACK GBD H464A/H467A (UniProt Q07912); assay: as above
GST-ACK GBD H467A = GST-ACK GBD H467A (UniProt Q07912); assay: as above
GST-ACK GBD I463A = GST-ACK GBD I463A (UniProt Q07912); assay: as above
GST-ACK GBD L449A = GST-ACK GBD L449A (UniProt Q07912); assay: as above
GST-ACK GBD L485A = GST-ACK GBD L485A (UniProt Q07912); assay: as above
GST-ACK GBD L487A = GST-ACK GBD L487A (UniProt Q07912); assay: as above
GST-ACK GBD P457A = GST-ACK GBD P457A (UniProt Q07912); assay: as above
GST-ACK GBD Q452A = GST-ACK GBD Q452A (UniProt Q07912); assay: as above
GST-ACK GBD Q459A = GST-ACK GBD Q459A (UniProt Q07912); assay: as above
GST-ACK GBD R481A = GST-ACK GBD R481A (UniProt Q07912); assay: as above
GST-ACK GBD S450A = GST-ACK GBD S450A (UniProt Q07912); assay: as above
GST-ACK GBD S455A = GST-ACK GBD S455A (UniProt Q07912); assay: as above
GST-ACK GBD S461A = GST-ACK GBD S461A (UniProt Q07912); assay: as above
GST-ACK GBD S470A = GST-ACK GBD S470A (UniProt Q07912); assay: as above
GST-ACK GBD T465A = GST-ACK GBD T465A (UniProt Q07912); assay: as above
GST-ACK GBD W476A = GST-ACK GBD W476A (UniProt Q07912); assay: as above
[4] = molecular target: GST-ACK GBD wild type, ACK(448-489) (UniProt Q07912); assay: as above
GST-ACK GBD Δ17 = GST-ACK GBD Δ17 (UniProt Q07912); assay: as above
Cdc42 Δ7 Q61L = Cdc42 Δ7 Q61L (UniProt P60953); assay: scintillation proximity assay (competition); 30 nM GST-WT ACK GBD immobilised on protein A SPA fluoromicrospheres via an anti-GST antibody, 30 nM [3H]GTP-Cdc42; increasing concentrations of GST-cleaved ACK variant; pure competition model, apparent Kd (Ki)

- Kd [1]: 130 nM
- kon [1]: 224000 M⁻¹ s⁻¹
- Kd [2]: 30 nM
- kon [2]: 793000 M⁻¹ s⁻¹
- Kd [3]: 220 nM
- kon [3]: 360000 M⁻¹ s⁻¹
- Kd (GST-ACK GBD A451D): 189 nM
- Kd (GST-ACK GBD D469A): 38 nM
- Kd (GST-ACK GBD D480A): 164 nM
- fold increase in Kd over WT (GST-ACK GBD F462A): > 22.6 -fold
- Kd (GST-ACK GBD G468A): 67.3 nM
- fold increase in Kd over WT (GST-ACK GBD H464A): > 22.6 -fold
- fold increase in Kd over WT (GST-ACK GBD H464A/H467A): > 22.6 -fold
- fold increase in Kd over WT (GST-ACK GBD H467A): > 22.6 -fold
- Kd (GST-ACK GBD I463A): 152 nM
- Kd (GST-ACK GBD L449A): 492 nM
- Kd (GST-ACK GBD L485A): 31.4 nM
- Kd (GST-ACK GBD L487A): 330 nM
- fold increase in Kd over WT (GST-ACK GBD P457A): > 22.6 -fold
- Kd (GST-ACK GBD Q452A): 44 nM
- Kd (GST-ACK GBD Q459A): 29.8 nM
- Kd (GST-ACK GBD R481A): 107 nM
- Kd (GST-ACK GBD S450A): 167 nM
- Kd (GST-ACK GBD S455A): 243 nM
- fold increase in Kd over WT (GST-ACK GBD S461A): > 22.6 -fold
- Kd (GST-ACK GBD S470A): 35.4 nM
- Kd (GST-ACK GBD T465A): 85.4 nM
- Kd (GST-ACK GBD W476A): 137 nM
- Kd [4]: 44.2 nM
- fold increase in Kd over WT (GST-ACK GBD Δ17): > 22.6 -fold
Molecule: Cdc42 Δ7 Q61L (from UniProt P60953 1-191) (natural protein)

- Kd (Cdc42 Δ7 Q61L): 4760 nM
Molecule: GLSAQDISQPLQNSFIHTGHGDSDP (domain or fragment) [ACK GBD Δ17, cleaved from GST]

- Kd (Cdc42 Δ7 Q61L): 20 nM
Molecule: GLSAQDISQPLQNSFIHTGHGDSDPRHCWGFPDRIDELYLGN (domain or fragment) [ACK GBD wild type, ACK(448-489), cleaved from GST]

- Kd (Cdc42 Δ7 Q61L): 3460 nM
Molecule: GLSAQDISQPLQNSAIHTGHGDSDPRHCWGFPDRIDELYLGN (domain or fragment) [ACK GBD F462A, cleaved from GST]

- Kd (Cdc42 Δ7 Q61L): 3830 nM
Molecule: GLSAQDISQALQNSFIHTGHGDSDPRHCWGFPDRIDELYLGN (domain or fragment) [ACK GBD P457A, cleaved from GST]

- Kd (Cdc42 Δ7 Q61L): 19700 nM
Molecule: GLSAQDASQPLQNSFIHTGHGDSDPRHCWGFPDRIDELYLGN (domain or fragment) [ACK GBD I454A, cleaved from GST]

- Kd (Cdc42 Δ7 Q61L): 1790 nM
Molecule: GLSAQDISQPLQNSFIHTGAGDSDPRHCWGFPDRIDELYLGN (domain or fragment) [ACK GBD H467A, cleaved from GST]

- Kd (Cdc42 Δ7 Q61L): 4160 nM
Molecule: GLSAQDISQPLQNAFIHTGHGDSDPRHCWGFPDRIDELYLGN (domain or fragment) [ACK GBD S461A, cleaved from GST]

- Kd (Cdc42 Δ7 Q61L): 2510 nM
Molecule: GLSAQDISQPLQNSFIATGHGDSDPRHCWGFPDRIDELYLGN (domain or fragment) [ACK GBD H464A, cleaved from GST]

- Kd (Cdc42 Δ7 Q61L): 750 nM
Molecule: GLSAQDIAQPLQNSFIHTGHGDSDPRHCWGFPDRIDELYLGN (domain or fragment) [ACK GBD S455A, cleaved from GST]
